Experiments:
[1] = target: pure human c-JUN protein (full length, Promega) (human) (UniProt P05412); test: laser fluorescence quenching assay, 750 ng antibody + 250 ng c-JUN + 0.075 pmole JD1F/2F, 50 mM NaCl
[2] = target: pure human c-JUN protein (full length, Promega) (human) (UniProt P05412); test: laser fluorescence quenching assay, 5 µg antibody + 1 µg c-JUN + 0.075 pmole JD1F/2F, 50 mM NaCl (c-JUN:DNA alone 25%)
[3] = target: pure human c-JUN protein (full length, Promega) (human) (UniProt P05412); test: laser fluorescence quenching assay, 5 µg antibody + 1 µg c-JUN + 0.075 pmole JD1F/2F, 50 mM NaCl
[4] = target: pure human c-JUN protein (full length, Promega) (human) (UniProt P05412); test: laser fluorescence quenching assay, 750 ng antibody + 250 ng c-JUN + 0.075 pmole JD1F/2F, 50 mM NaCl (c-JUN:DNA alone 11%)
[5] = target: pure human c-JUN protein (full length, Promega) (human) (UniProt P05412); test: laser fluorescence quenching assay, 1 µg antibody + 1 µg c-JUN + 0.075 pmole JD1F/2F, 50 mM NaCl
[6] = target: pure human c-JUN protein (full length, Promega) (human) (UniProt P05412); test: laser fluorescence quenching assay, 1 µg antibody + 1 µg c-JUN + 0.075 pmole JD1F/2F, 50 mM NaCl (c-JUN:DNA alone 25%)

UniProt P05412, sequence (P05412 whole entry): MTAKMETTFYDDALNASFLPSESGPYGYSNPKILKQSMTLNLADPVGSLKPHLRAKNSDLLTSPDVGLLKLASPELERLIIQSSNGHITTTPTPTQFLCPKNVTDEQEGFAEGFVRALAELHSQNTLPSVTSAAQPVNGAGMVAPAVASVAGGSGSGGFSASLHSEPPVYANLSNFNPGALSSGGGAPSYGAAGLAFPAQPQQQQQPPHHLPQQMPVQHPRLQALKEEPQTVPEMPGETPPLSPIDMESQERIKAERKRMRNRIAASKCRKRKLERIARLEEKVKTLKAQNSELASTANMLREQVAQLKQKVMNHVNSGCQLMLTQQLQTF

For “monoclonal IgG1 antibody, c-JUN (KM-1) (Santa Cruz Biotechnology)”, the further decrease in fluorescent intensity from the c-JUN:DNA complex [1] was 16%, the decrease in fluorescent intensity compared to DNA alone [2] was 42% and the further decrease in fluorescent intensity from the c-JUN:DNA complex [3] was 17%. It also gave a decrease in fluorescent intensity compared to DNA alone [4] of 27%, a further decrease in fluorescent intensity from the c-JUN:DNA complex [5] of 12% and a decrease in fluorescent intensity compared to DNA alone [6] of 37%.

Reference: US20030022853A1
